Test results published in patent US20070089183.
Where a chain is given by its changes, count along the chain named. Numbers in names are those of the source.

B1: DWF1(V531D), full length, expressed in planta from 35S::DWF1(V531D) (protein)
chain: MSDLQTPLVRPKRKKTWVDYFVKFRWIIVIFIVLPFSATFYFLIYLGDMWSESKSFEKRQKEHDENVKKVIKRLKGRDASKDGLVCTARKPWIAVGMRNVDYKRARHFEVDLGEFRNILEINKEKMTARVEPLVNMGQISRATVPMNLSLAVVAELDDLTVGGLINGYGIEGSSHIYGLFADTVEAYEIVLAGGELVRATRDNEYSDLYYAIPWSQGTLGLLVAAEIRLIKVKEYMRLTYIPVKGDLQALAQGYIDSFAPKDGDKSKIPDFVEGMVYNPTEGVMMVGTYASKEEAKKKGNKINNVGWWFKPWFYQHAQTALKKGQFVEYIPTREYYHRHTRCLYWEGKLILPFGDQFWFRYLLGWLMPPKVSLLKATQGEAIRNYYHDMHVIQDMLVPLYKVGDALEWVHREMEVYPIWLCPHKLFKQPIKGQIYPEPGFEYENRQGDTEDAQMYTDVGVYYAPGCVLRGEEFDGSEAVRRMEKWLIENHGFQPQYAVSELDEKSFWRMFNGELYEECRKKYRAIGTFMSDYYKSKKGRKTEKEVREAEQAHLETAYAEAD
B2: DWF1(KYR521-523DGD), full length, expressed in planta from 35S::DWF1(KYR521-523DGD) (protein)
chain: B1 chain with K521D, Y522G, R523D, D531V
B3: DWF1(Δ518-539), full length, expressed in planta from 35S::DWF1(Δ518-539) (protein)
chain: MSDLQTPLVRPKRKKTWVDYFVKFRWIIVIFIVLPFSATFYFLIYLGDMWSESKSFEKRQKEHDENVKKVIKRLKGRDASKDGLVCTARKPWIAVGMRNVDYKRARHFEVDLGEFRNILEINKEKMTARVEPLVNMGQISRATVPMNLSLAVVAELDDLTVGGLINGYGIEGSSHIYGLFADTVEAYEIVLAGGELVRATRDNEYSDLYYAIPWSQGTLGLLVAAEIRLIKVKEYMRLTYIPVKGDLQALAQGYIDSFAPKDGDKSKIPDFVEGMVYNPTEGVMMVGTYASKEEAKKKGNKINNVGWWFKPWFYQHAQTALKKGQFVEYIPTREYYHRHTRCLYWEGKLILPFGDQFWFRYLLGWLMPPKVSLLKATQGEAIRNYYHDMHVIQDMLVPLYKVGDALEWVHREMEVYPIWLCPHKLFKQPIKGQIYPEPGFEYENRQGDTEDAQMYTDVGVYYAPGCVLRGEEFDGSEAVRRMEKWLIENHGFQPQYAVSELDEKSFWRMFNGELYEEKTEKEVREAEQAHLETAYAEAD

Target: CaM (endogenous calmodulin of Arabidopsis plants)

Protein | complementation of the dwf1 null mutant (plant phenotype, height) | complementation of the dwf1 null mutant (plant phenotype)
B1 | showed some degree of phenotype rescue, with round, expanded leaves but unextended petioles at the rosette stage and bushy flowering stems reaching up to 40% of the height of the wild-type plant | 
B2 |  | showed very slight phenotypic rescue
B3 |  | grew like the uncomplemented dwf1 mutants
